{"source": "the Human Domainome abundance scans (Beltran et al. 2025)", "parents": {"B1": {"name": "Transcriptional regulator ERG, residues 117 to 197; numbered along this chain, P11308 (parent)", "chain": "NMTTNERRVIVPADPTLWSTDHVRQWLEWAVKEYGLPDVNILLFQNIDGKELCKMTKDDFQRLTPSYNADILLSHLHYLRE"}}, "note": "± gives the uncertainty stated by the source.", "data": [{"variants_of": "B1", "test": "abundance fitness (aPCA) (normalised: wild type 0, dead -1); higher = more abundant; growth selection in yeast, the domain comes from the species named", "conditions": "Homo sapiens", "values": [{"variant": "NMTTNERRVIVPADPTLWSTDHVRQWLEWAVKEYGLPDVNILLFQNIDGKELCKMTKDDFQRLTPSYNADILLGHLHYLRE", "abundance fitness": "0.026 ± 0.039"}, {"variant": "NMTTNERRVIVPADPTLWSTDHVRQWLEWAVKEYGLPDVNILLFQNIDGKELCKMTKDDFQRLTPSYNADILLNHLHYLRE", "abundance fitness": "0.032 ± 0.15"}, {"variant": "NMTTNERRVIVPADPTLWSTDHVRQWLEWAVKEYGLPDVNILLFQNIDGKELCKMTKDDFQRLTPSYNADILLLHLHYLRE", "abundance fitness": "-0.217 ± 0.095"}, {"variant": "NMTTNERRVIVPADPTLWSTDHVRQWLEWAVKEYGLPDVNILLFQNIDGKELCKMTKDDFQRLTPSYNADILLHHLHYLRE", "abundance fitness": "0.246 ± 0.14"}, {"variant": "NMTTNERRVIVPADPTLWSTDHVRQWLEWAVKEYGLPDVNILLFQNIDGKELCKMTKDDFQRLTPSYNADILLQHLHYLRE", "abundance fitness": "-0.073 ± 0.1"}, {"variant": "NMTTNERRVIVPADPTLWSTDHVRQWLEWAVKEYGLPDVNILLFQNIDGKELCKMTKDDFQRLTPSYNADILLMHLHYLRE", "abundance fitness": "-0.124 ± 0.095"}, {"variant": "NMTTNERRVIVPADPTLWSTDHVRQWLEWAVKEYGLPDVNILLFQNIDGKELCKMTKDDFQRLTPSYNADILLWHLHYLRE", "abundance fitness": "-0.603 ± 0.15"}, {"variant": "NMTTNERRVIVPADPTLWSTDHVRQWLEWAVKEYGLPDVNILLFQNIDGKELCKMTKDDFQRLTPSYNADILLRHLHYLRE", "abundance fitness": "0.006 ± 0.043"}, {"variant": "NMTTNERRVIVPADPTLWSTDHVRQWLEWAVKEYGLPDVNILLFQNIDGKELCKMTKDDFQRLTPSYNADILLVHLHYLRE", "abundance fitness": "-0.138 ± 0.066"}, {"variant": "NMTTNERRVIVPADPTLWSTDHVRQWLEWAVKEYGLPDVNILLFQNIDGKELCKMTKDDFQRLTPSYNADILLDHLHYLRE", "abundance fitness": "-0.064 ± 0.083"}, {"variant": "NMTTNERRVIVPADPTLWSTDHVRQWLEWAVKEYGLPDVNILLFQNIDGKELCKMTKDDFQRLTPSYNADILLFHLHYLRE", "abundance fitness": "-0.379 ± 0.13"}, {"variant": "NMTTNERRVIVPADPTLWSTDHVRQWLEWAVKEYGLPDVNILLFQNIDGKELCKMTKDDFQRLTPSYNADILLYHLHYLRE", "abundance fitness": "-0.018 ± 0.12"}, {"variant": "NMTTNERRVIVPADPTLWSTDHVRQWLEWAVKEYGLPDVNILLFQNIDGKELCKMTKDDFQRLTPSYNADILLIHLHYLRE", "abundance fitness": "-0.342 ± 0.17"}, {"variant": "NMTTNERRVIVPADPTLWSTDHVRQWLEWAVKEYGLPDVNILLFQNIDGKELCKMTKDDFQRLTPSYNADILLSHLHCLRE", "abundance fitness": "0.029 ± 0.13"}, {"variant": "NMTTNERRVIVPADPTLWSTDHVRQWLEWAVKEYGLPDVNILLFQNIDGKELCKMTKDDFQRLTPSYNADILLSHLHDLRE", "abundance fitness": "0.228 ± 0.081"}, {"variant": "NMTTNERRVIVPADPTLWSTDHVRQWLEWAVKEYGLPDVNILLFQNIDGKELCKMTKDDFQRLTPSYNADILLSHLHALRE", "abundance fitness": "0.181 ± 0.053"}, {"variant": "NMTTNERRVIVPADPTLWSTDHVRQWLEWAVKEYGLPDVNILLFQNIDGKELCKMTKDDFQRLTPSYNADILLSHLHELRE", "abundance fitness": "0.247 ± 0.059"}, {"variant": "NMTTNERRVIVPADPTLWSTDHVRQWLEWAVKEYGLPDVNILLFQNIDGKELCKMTKDDFQRLTPSYNADILLSHLLYLRE", "abundance fitness": "-0.087 ± 0.067"}, {"variant": "NMTTNERRVIVPADPTLWSTDHVRQWLEWAVKEYGLPDVNILLFQNIDGKELCKMTKDDFQRLTPSYNADILLSHLMYLRE", "abundance fitness": "-0.24 ± 0.1"}, {"variant": "NMTTNERRVIVPADPTLWSTDHVRQWLEWAVKEYGLPDVNILLFQNIDGKELCKMTKDDFQRLTPSYNADILLSHLYYLRE", "abundance fitness": "-0.295 ± 0.18"}, {"variant": "NMTTNERRVIVPADPTLWSTDHVRQWLEWAVKEYGLPDVNILLFQNIDGKELCKMTKDDFQRLTPSYNADILLSHLSYLRE", "abundance fitness": "-0.026 ± 0.073"}, {"variant": "NMTTNERRVIVPADPTLWSTDHVRQWLEWAVKEYGLPDVNILLFQNIDGKELCKMTKDDFQRLTPSYNADILLSHLTYLRE", "abundance fitness": "-0.119 ± 0.11"}, {"variant": "NMTTNERRVIVPADPTLWSTDHVRQWLEWAVKEYGLPDVNILLFQNIDGKELCKMTKDDFQRLTPSYNADILLSHLKYLRE", "abundance fitness": "0.044 ± 0.1"}, {"variant": "NMTTNERRVIVPADPTLWSTDHVRQWLEWAVKEYGLPDVNILLFQNIDGKELCKMTKDDFQRLTPSYNADILLSHLQYLRE", "abundance fitness": "-0.098 ± 0.1"}, {"variant": "NMTTNERRVIVPADPTLWSTDHVRQWLEWAVKEYGLPDVNILLFQNIDGKELCKMTKDDFQRLTPSYNADILLSHLNYLRE", "abundance fitness": "0.112 ± 0.1"}, {"variant": "NMTTNERRVIVPADPTLWSTDHVRQWLEWAVKEYGLPDVNILLFQNIDGKELCKMTKDDFQRLTPSYNADILLSHLRYLRE", "abundance fitness": "0.052 ± 0.05"}, {"variant": "NMTTNERRVIVPADPTLWSTDHVRQWLEWAVKEYGLPDVNILLFQNIDGKELCKMTKDDFQRLTPSYNADILLSHLEYLRE", "abundance fitness": "0.099 ± 0.079"}, {"variant": "NMTTNERRVIVPADPTLWSTDHVRQWLEWAVKEYGLPDVNILLFQNIDGKELCKMTKDDFQRLTPSYNADILLSHLGYLRE", "abundance fitness": "0.194 ± 0.061"}, {"variant": "NMTTNERRVIVPADPTLWSTDHVRQWLEWAVKEYGLPDVNILLFQNIDGKELCKMTKDDFQRLTPSYNADILLSHLIYLRE", "abundance fitness": "0.142 ± 0.18"}, {"variant": "NMTTNERRVIVPADPTLWSTDHVRQWLEWAVKEYGLPDVNILLFQNIDGKELCKMTKDDFQRLTPSYNADILLSHLWYLRE", "abundance fitness": "-0.166 ± 0.11"}, {"variant": "NMTTNERRVIVPADPTLWSTDHVRQWLEWAVKEYGLPDVNILLFQNIDGKELCKMTKDDFQRLTPSYNADILLSHLAYLRE", "abundance fitness": "0.034 ± 0.065"}, {"variant": "NMTTNERRVIVPADPTLWSTDHVRQWLEWAVKEYGLPDVNILLFQNIDGKELCKMTKDDFQRLTPSYNADILLSHLFYLRE", "abundance fitness": "-0.226 ± 0.16"}, {"variant": "NMTTNERRVIVPADPTLWSTDHVRQWLEWAVKEYGLPDVNILLFQNIDGKELCKMTKDDFQRLTPSYNADILLSHLVYLRE", "abundance fitness": "-0.072 ± 0.065"}, {"variant": "NMTTNERRVIVPADPTLWSTDHVRQWLEWAVKEYGLPDVNILLFQNIDGKELCKMTKDDFQRLTPSYNADILLSHLDYLRE", "abundance fitness": "-0.128 ± 0.11"}]}]}
